B1: full-length Thermus scotoductus OLD (enzyme, UniProt E8PLM2 1-528, looked up)
chain: MLKRLQVKNFRCLEDIDLPLGPLTAIVGPNGAGKTTILRAIDLVLGDVWPSLRSFRIPQDFINFDTTRAIEITVHFDPPYTQGSFNITAFRLTCKGEDADFHVDLEPLDEGGNVPRYPSGNPLRVGTDMRNHARVLFLDHRRNLAQHLPSIRGSILGRLLQPVRREFKLQDNFKQVYEQAMDLLRTEQVKQIEKTIAETAKQMLGFLGKDAMKSMEIGFGFADPANPFNSLRLQYRESDLTLPGDELGLGIQSAIVVGIFEAFRQLGEKIGTVIIEEPEMYLHPQAQRYFYRLLCEMADKDQCQIIYSTHSPIFADVNRFEALRLVRKDRDDRVVVSYVREEDKSALDNVRNRFKLGGRFDTARNEVLFAKRALLVEGYGDRVAALQLFNQLEVDPDAECIAVVDCGGKAGIELIVGVCKALDIPFVVVHDEDVWPIDERADEETRRKQEQENKAEQEKNQRIQACAGAERVFVVQPSLEAALGIGRNASDKPYRIAEILKTVDVGQPPDALRPFVEAIRQVTRPMEE
notes: Thermus scotoductus OLD (Class 1 OLD family nuclease), UniProt E8PLM2, full-length, residues 1-525; codon-optimised synthetic gene in pET21b; Dimer by SEC-MALS and by crystal symmetry; The crystal model holds residues 1-142, 149-237 and 245-525; also called Ts^FL; Ts OLD; source: E. coli BL21(DE3), purified (65°C heat step, nickel column, HiTrap Q, SEC)
B2: Thermus scotoductus OLD N-terminal region (residues 1-369) (domain or fragment, UniProt E8PLM2 1-369, looked up)
chain: MLKRLQVKNFRCLEDIDLPLGPLTAIVGPNGAGKTTILRAIDLVLGDVWPSLRSFRIPQDFINFDTTRAIEITVHFDPPYTQGSFNITAFRLTCKGEDADFHVDLEPLDEGGNVPRYPSGNPLRVGTDMRNHARVLFLDHRRNLAQHLPSIRGSILGRLLQPVRREFKLQDNFKQVYEQAMDLLRTEQVKQIEKTIAETAKQMLGFLGKDAMKSMEIGFGFADPANPFNSLRLQYRESDLTLPGDELGLGIQSAIVVGIFEAFRQLGEKIGTVIIEEPEMYLHPQAQRYFYRLLCEMADKDQCQIIYSTHSPIFADVNRFEALRLVRKDRDDRVVVSYVREEDKSALDNVRNRFKLGGRFDTARNEVLF
notes: Thermus scotoductus OLD, UniProt E8PLM2, N-terminal region encompassing the ATPase domain, residues 1-369; in pET21b; also called Ts^NTR; NTR; source: E. coli BL21(DE3), purified (65°C heat step, nickel column, HiTrap Q, SEC)
B3: Ts OLD (Ts^FL) (Thermus scotoductus SA-01) (protein)
chain: MLKRLQVKNFRCLEDIDLPLGPLTAIVGPNGAGKTTILRAIDLVLGDVWPSLRSFRIPQDFINFDTTRAIEITVHFDPPYTQGSFNITAFRLTCKGEDADFHVDLEPLDEGGNVPRYPSGNPLRVGTDMRNHARVLFLDHRRNLAQHLPSIRGSILGRLLQPVRREFKLQDNFKQVYEQAMDLLRTEQVKQIEKTIAETAKQMLGFLGKDAMKSMEIGFGFADPANPFNSLRLQYRESDLTLPGDELGLGIQSAIVVGIFEAFRQLGEKIGTVIIEEPEMYLHPQAQRYFYRLLCEMADKDQCQIIYSTHSPIFADVNRFEALRLVRKDRDDRVVVSYVREEDKSALDNVRNRFKLGGRFDTARNEVLFAKRALLVEGYGDRVAALQLFNQLEVDPDAECIAVVDCGGKAGIELIVGVCKALDIPFVVVHDEDVWPIDERADEETRRKQEQENKAEQEKNQRIQACAGAERVFVVQPSLEAALGIGRNASDKPYRIAEILKTVDVGQPPDALRPFVEAIRQVTRP
notes: full-length, residues 1-525, C-terminal 6xHis tag (pET21b), codon-optimized, expressed in E. coli BL21(DE3); homodimer

Assays:
[1] = target: the molecule itself; experiment: SEC-MALS; 4 mg/ml loaded on Superdex 200 10/300 Increase; 20 mM HEPES pH 7.5, 150 mM KCl, 5 mM MgCl2, 1 mM DTT; 0.7 ml/min; Ts^FL also in different nucleotide states
[2] = substrate: Nc1ncnc2c1ncn2[C@@H]1O[C@H](COP(=O)(O)OP(=O)(O)OP(=O)(O)O)[C@@H](O)[C@H]1O; experiment: Malachite green phosphate release ATPase assay; format: biochemical, Thermus scotoductus; conditions: 65°C, 20 mM Tris-HCl pH 8, 50 mM NaCl, 5 mM MgCl2, no DNA (basal)

Row | Protein | stoichiometry N [1] | Km [2] [µM] | kcat [2] [s⁻¹]
1 | B1 | 2 | – | –
2 | B2 | 2 | – | –
3 | B3 | – | 180 ± 26 | 0.00733 ± 0.005

— paper PMC7049728, “The full-length structure of Thermus scotoductus OLD defines the ATP hydrolysis properties and catalytic mechanism of Class 1 OLD family nucleases” (Nucleic Acids Research, 2020)
